Laboratory results reported in the supplement of paper PMC10567573.
± gives the standard deviation.

Assay: protein stability index of a GFP-peptide fusion (GPS, HEK-293T) (PSI 1-6); higher = more stable
[1] = treatment: DMSO, c terminus: a fixed tail appended
[2] = treatment: MLN4924 1 uM, 8 h, c terminus: a fixed tail appended
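Further: 24-mer peptide tiles fused after GFP, lentivirally expressed, FACS-sorted into six equal bins by GFP/DsRed ratio, decoded by Illumina sequencing, PSI is the read-weighted mean bin number.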

Sequence	protein stability index [1]	protein stability index [2]	protein stability index (treatment: DMSO, c terminus: native)	protein stability index (treatment: MLN4924 1 uM, 8 h, c terminus: native)
EYTCDVEKRSRGQVLFDKVCEHLN [EPB41L3]	2.16 ± 0.32	2.05 ± 0.61	–	–
SLKLASSELERLIVPNSNGVITTT [JUNB]	3.24 ± 0.41	3.4 ± 0.54	–	–
SGVCLFAVFIALLPILGHRDYKIQ [PTGFR]	3.6 ± 0.45	3.37 ± 0.12	–	–
AAPDCTPSLEAGNPAPAAPCPLGE [MYCL]	5.42 ± 0.25	5.49 ± 0.26	–	–
PARTVLVGSLSWLRKQLQPTHCKY	2.38 ± 0.43	2.19 ± 0.098	–	–
LPPEKGREVAKELGIPYYETSVVA [RHOBTB2]	3.55 ± 0.24	3.55 ± 0.18	–	–
LSLQDQVDTLTFQSQSLRDRARRF [MTUS2]	3.91 ± 0.26	3.84 ± 0.18	–	–
LSEDYNKMTPVKNYQAHQSRVTMI [WDFY2]	2.71 ± 0.12	2.83 ± 0.13	–	–
DFKDFYPAIADLFAESLQCKVDCE [P3H4]	2.84 ± 0.4	3.16 ± 0.62	–	–
CWKMLSPGFDSSVYSDLCEAAEAV [ADAMTSL2]	2.69 ± 0.34	3.16 ± 0.71	–	–
EDAVASADFSSMLSEEEKEELKAE [TPD52L1]	5.59 ± 0.3	5.54 ± 0.63	–	–
EGSRKSSRVKGSAPEIDPSSDGSN [KMT2E]	5.36 ± 0.17	5.21 ± 0.18	–	–
PFSSVTEEELNFEKGETMEVIEKP [NCK2]	5.38 ± 0.22	5.42 ± 0.28	–	–
FSHEILRDEESFFGERRIPRGRRI [ALKBH7]	3.34 ± 0.4	3.84 ± 0.4	–	–
RTMAPEKLLKSMPILQGQIDALLE [SNAP91]	2.83 ± 0.16	2.89 ± 0.27	–	–
DLGEGKICFCCEEFQPAKCTDKEN [FAM189A2]	4.24 ± 0.34	4.07 ± 0.085	–	–
SRNEFDRTIAETEAAYLKILESSQ [SSNA1]	3.95 ± 0.22	4.04 ± 0.34	–	–
LPYPKDVYSVSVDQKERCIIVRTT [DPCD]	2.21 ± 0.22	2.18 ± 0.22	–	–
PLDSKENLENPMRRIHSLPQKLLG [CDC25A]	3.29 ± 0.32	3.79 ± 0.16	–	–
EGAIVMARGRHVGSSETNLLQHLL [PYCR3]	3.25 ± 0.78	3.18 ± 0.08	–	–
DRVQVERDGLAEDLAALKQRLEEE [PRPH]	5.49 ± 0.16	5.17 ± 0.25	–	–
WHDVQVSSAYVKTSEKLGEWNEKV [TPD52L2]	3.64 ± 0.26	3.8 ± 0.24	–	–

Sequence	protein stability index [1]	protein stability index [2]	protein stability index (treatment: DMSO, c terminus: native)	protein stability index (treatment: MLN4924 1 uM, 8 h, c terminus: native)
QQLEEELLRAKIEVEKLKAIRLRH [RAD54B]	5.32 ± 0.25	5.43 ± 0.27	–	–
RGRAVLREAGFHQYEVSNFARNGA [RSAD1]	3.36 ± 0.54	3.37 ± 0.48	–	–
QAYKWSNKLQYHAGLASGLLNQQS [MED27]	2.46 ± 0.28	2.42 ± 0.096	–	–
HQAQLISKIPHILKEMYDADLLEE [EIF5]	2.94 ± 0.24	3.27 ± 0.59	–	–
VIASGSSVGHNNLIPLANTGIVNH [CARM1]	3.11 ± 0.099	3.19 ± 0.23	–	–
HILKARKVLTEPEVRYYLRQIVSG [PLK2]	2.17 ± 0.53	2.33 ± 0.43	–	–
VPYHIARIPYTKSQTEAHYSCQSK [P2RY14]	3.47 ± 0.17	3.53 ± 0.36	–	–
EKSLDQLKSISAEEILTLFCGAPP [PHTF1]	3.02 ± 0.21	3.3 ± 0.15	–	–
QIEGLNEELAYLKKNHEEEMKEFS [KRT15]	5.25 ± 0.33	5.3 ± 0.19	–	–
TSTGFDRHTSPVFSPANPESSMED [BCL2L13]	5.39 ± 0.28	5.16 ± 0.072	–	–
VGSVALTALVTVSSEEFEDKWFRK [C8orf76]	2.26 ± 0.19	2.35 ± 0.21	–	–
PFGENAEFPADISSITEAVPSESE [NFE2L1]	5.5 ± 0.28	5.25 ± 0.27	–	–
VRCGLLGSLGPVPVLRFDALWQVL [TRIM14]	2.29 ± 0.39	2.29 ± 0.49	–	–
KIFVENLRRQKSLRLEWETQQELR [IQUB]	2.69 ± 0.43	2.93 ± 0.46	–	–
EKKKGKAKKKRLTKADIGTPSNFQ [WASL]	4.62 ± 0.099	4.63 ± 0.062	–	–
VFKCSVSRETECSRVGKQSFIITL [CARM1]	2.65 ± 1.1	2.61 ± 0.67	–	–
YNNRGQIKYFRVDFYEAMDDYTSA [TTC32]	2.15 ± 0.29	2.35 ± 0.24	–	–
RYPTISMVKPLLHMLLNTTLNIKE [ZBED1]	2.83 ± 0.58	3.37 ± 0.72	–	–
LGIHEDSTNRRRLSELLRYHTSQS [HSP90AB1]	3.5 ± 0.22	3.71 ± 0.24	–	–
YERLARILLQEIPIRSISLRSCYF [FBXO39]	2.92 ± 0.28	2.56 ± 0.26	–	–
PAIVEAGGMQALGLHLTDPSQRLV [CTNNB1]	3.79 ± 0.23	3.83 ± 0.15	–	–
GCDPLVKPVGRQACDLQPCPTEPP [ADAMTSL2]	4.2 ± 0.049	4.54 ± 1.2	–	–

Sequence	protein stability index [1]	protein stability index [2]	protein stability index (treatment: DMSO, c terminus: native)	protein stability index (treatment: MLN4924 1 uM, 8 h, c terminus: native)
RRDCMWSGFSARERLERAVSDRLA [MYCL]	3.31 ± 0.23	3.4 ± 0.18	–	–
HCRKCGKAVCGKCSSKRSSIPLMG [WDFY2]	3.94 ± 0.21	3.93 ± 0.17	–	–
YRQDDPSYRSFHSGGYGQDALGMD [CTNNB1]	3.89 ± 0.35	4.03 ± 0.14	–	–
IPGLPGLRGLPGERGTPGLPGPKG [SCARA5]	4.34 ± 0.41	4.42 ± 0.22	–	–
LGRGLVGGQEEASQEAGLPAGAGP [SEPHS2]	5.23 ± 0.47	4.75 ± 0.65	–	–
LIKTIETRNGEVVTESQKEQRSEL [PRPH]	4.91 ± 0.52	4.67 ± 0.53	–	–
FDVGGQRSERKKWIHCFEGVTAII [GNAI1]	2.29 ± 0.44	1.95 ± 0.37	–	–
LRPPHTSRGTSQTPNASSPGNPTA [LPCAT4]	4.76 ± 0.17	4.85 ± 0.21	–	–
EIAQYLLEKGADVNRKSVKGNTAL [FEM1C]	2.58 ± 0.35	2.64 ± 0.3	–	–
GAASLPSELIVHIFSFLPAPDRLR [FBXO33]	2.6 ± 0.74	2.74 ± 0.39	–	–
ILRCWKCRKCIASSGCFMEYLENQ [RNF180]	2.36 ± 0.4	2.43 ± 0.46	–	–
WPLRGKREAMLEMLLQHQICKEVQ [SPAG8]	2.17 ± 0.4	2.11 ± 0.24	–	–
PPIPILELADHIERLKANDNLKFS [PTPRD]	3.56 ± 0.19	3.32 ± 0.2	–	–
LLKPHSYGRFIRWLNKEKGIFKIE [SPDEF]	2.49 ± 0.66	2.4 ± 0.46	–	–
ARGAGPPEPLRICPLHISVKEELD [TRIM35]	4.59 ± 0.19	4.86 ± 0.4	–	–
PDVTQLTPPSHDLTDNIFPRLVC [ANKRD17]	–	–	2.45 ± 0.28	2.4 ± 0.25
PSRGHAYRDYGHSRRDESYSRGYR [RBMY1A1]	4.42 ± 0.13	4.34 ± 0.26	–	–
TEGNPRWEQTHLTYRIENYTPDLP [MMP1]	3.37 ± 0.099	3.51 ± 0.35	–	–
TVAASDPDTGDNARLTYSIVGNQV [PCDHGC5]	4.36 ± 0.26	4.31 ± 0.18	–	–
TPATPATLSASSSAGGSRTPAMSS [TFE3]	4.99 ± 0.23	4.95 ± 0.3	–	–
PYPASKADIPSVAFSSRLGGSRGA [DCAF4]	3.71 ± 0.22	3.8 ± 0.41	–	–
